From the supplement of paper PMC12764529
± gives the half width of the 95% confidence interval.

Experiment: folding stability dG unfold from chymotrypsin proteolysis; higher = more stable
How it was run: (§1)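 Designed mini-proteins (under 80 residues, no cysteine) in a PA-tagged cDNA display construct were digested with trypsin and chymotrypsin. Each protease was used at 11 concentrations (threefold dilutions) plus a no-protease condition, followed by sequencing. K50 was inferred by Bayesian fitting of sequencing counts, and unfolding free energy was derived against a sequence-predicted unfolded-state K50 and a shared folded-state K50, per protease or combined. Only designs with AlphaFold2 dimer inter-PAE above 15 were kept.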

Row | Sequence | folding stability dG unfold [kcal/mol]
1 | SAGGSPMRIRDVEIEEFDPDAGRIEIRFPSNGNTIKIPIPPGHKSLKIKIRMKNGEPFEQTITIPPSAGGSA [r2_132_TrROS] | 1.08 ± 0.12
2 | SENPVLKNRPLPVVGTTERTSVAKPGESLDVKELPSNGIVATTPDGSTVGITVTVDANGNVLSLEIKPDPSA [r9_1195_JUSTAS] | 0.272 ± 0.069
3 | SAGGSAGGSAGMRLLTVEYFDENGNPLSVEEIELYIERPPPPFLELEIDPRTGEPRFTGLSAGGSAGGSAGG [r17_348_JUSTAS] | 1.68 ± 0.068
4 | SKVIYVPPGATVEEILAAIKANKGKTVTIVMSREELERLKKALEEAGYEVEEVKVFEEEPYVVVKIKVKPSA [r9_1138_TrROS_Hall] | 3.72 ± 0.12
5 | SAGGMKEITLPNGVKITEVIEKDGYYYIKIYNKKTGKVYEIKVKKGEKIEIKFPKGSTVTKIEIVKKSAGGS [r16_123_TrROS_Hall] | 3.24 ± 0.066
6 | SAGGSAGGSAGMKPNEPDLVLLTTTVTLTTTETTTDEDGNTYTTTTTTTLTTTTLLPRGTSAGGSAGGSAGG [r17_523_TrROS_Hall] | 3.94 ± 0.087
7 | SAGGSAGGSAGGTGPPPVKTLVIVANWTEEQAEALKKAFPDQEVTVYEIPGLPKTVAVVSSAGGSAGGSAGG [r17_254_TrMRF] | 1.42 ± 0.086
8 | SMKIVKIEIEKIEIYSDEEFAKKTGIKPEAIYKNGKKKKVIKIPVKITLYDEKKGEKKEFEAEITIVIDVSA [r9_382_TrMRF] | 2.61 ± 0.19
9 | SAGGSAGGSAKPDPGAPYPWKIVEVVPIRIDMYFKFPGEPFKMDIEIPILVMVDPDNGKIFSAGGSAGGSAG [r3_391_TrROS] | 2.94 ± 0.064
10 | SATVTLVSVEKEGDKTTVTTRDPSGYTVTVTNPDGSIVLAPIPAEGAEAAIAAIKAAHPGVTVTLEAAASAG [r14_528_JUSTAS] | 1.24 ± 0.031
11 | SAGGSAGGSAVPFVLPDGYVLEVEPDPETGLYRIRVTSPDGRTYEFTAPPDVPLADIPVVIDDSAGGSAGGS [r12_261_TrMRF] | 2.96 ± 0.034
12 | SAGGMIEVFVEGLTLEETLRRLAEEYPDVPEVVVFFPDGTAVFFRRDGDEVEVVEVVPVGPVAPDELSAGGS [r8_225_TrMRF] | 3.118 ± 0.017
13 | SAGIKIKDISRDPNGYVEVTIVYPPGKSIKEIIELIRKLFGFKIEKVEIYPSPNGVYITYRFRIPEGAISAG [r5_774_TrROS] | 4.47 ± 0.058
14 | SEKVKITIEVWRPPGWWYVKIKLPDNGQEITYPFDSAEDFKEQIKKWLGLPPDNVKITDVEVYPMPPDDFSA [r9_909_TrROS] | 3.14 ± 0.081
15 | SAGGSDGEMITYPFLLPDGYLITIWISPENGQITEIEIMPIPAPPPEPPVEPKYGRDDGNGNKKYDSAGGSA [r2_78_TrROS] | 1.72 ± 0.088
16 | SAGGSAMKIEITVEKNENGELTITVKIYDKNGKLVKEIKLKVKTEEEAKKALKELAEKLGIEVEPESAGGSA [r15_242_TrROS_Hall] | 3.67 ± 0.16
17 | SAGGKVTLIEVEFEGGNPTISLTVTNADGSVEAVFVSPSPTDVLYATATLTVGGHPVVVVARASKDESAGGS [r16_672_TrMRF] | 2.11 ± 0.056
18 | SMSYTVTVEYPDTGKTTTTPIPPDALEVSVSLSGPSTIRITITTDVNGATTTTTSTVTLPPPALPPSTLLSA [r9_1067_JUSTAS] | 0.927 ± 0.28
19 | SAGGSALADRIAELARELGFEPVEIRYDPETGEVYALVRKPGGLLLRMRVEVDDDELHIEIEPLTDSAGGSA [r15_561_TrMRF] | 5.27 ± 0.058
20 | SAGEELIKKLAEELNLEVEIVSVEVDEETPTITVEVRVRNKDGEELTVRITITYDKETDEVHIEVEVLPSAG [r5_929_TrROS_Hall] | 3.99 ± 0.26
21 | SAGGSAGGSMTVETTPLATSRDPESDNTVTLTRTTVTFPDGTVRTETWTVTTAPDGTTTTTVSSAGGSAGGS [r12_250_JUSTAS] | 1.35 ± 0.033

Experiment: folding stability dG unfold (combined trypsin and chymotrypsin); higher = more stable
How it was run: as §1

Row | Sequence | folding stability dG unfold [kcal/mol]
22 | MPLGLESERYPNGAPTIESVEVPEDGSVKITLYFPETGEKVEYTLPPNIPPGTEYEIDLPGPTGTGRLRLGS [r1_43_TrMRF] | 1.27 ± 0.2
23 | SAMDIGPEERAELLLRTLANIAKEEIEKGDLEKAKIFVINGIAEENPPLAERILKEAKELGLPVIILPESAG [r14_908_TrMRF] | 0.981 ± 0.059
24 | SAGGMLLLTLTVDRVEEAEFPEKVPYLRTTTQPVVVPGTTLEEAEAVAAALAAAHGVPVTLTVTPETGSAGG [r13_320_JUSTAS] | -0.189 ± 0.072
25 | SAGGSAKELIIKIKIKVKVNGKTYEIEIEIKAESIEEAIEAIKKKLEEEGLEIEIVEIEIIPKEELSAGGSA [r15_165_TrROS_Hall] | 2.99 ± 0.1
26 | SAGGSAGGSAGMTRTVTFTITDPNSSNTTTITVPTTSEQDVAAAKAALKAANPNVTITLTSAGGSAGGSAGG [r11_233_JUSTAS] | 0.718 ± 0.076
27 | SAGGSAGGSAGRRRVFFTPDGTLIVVDELPDFVRVTRYRITPGFPRIEPVDTRVLPPGALSAGGSAGGSAGG [r11_844_TrMRF] | 2.25 ± 0.16
28 | SAGGSAGGGKMEYDPKDGTMRWRDPANGIEHESRIEIPPIVIPADDLPKLREQFPPDMPVVLAGSAGGSAGG [r6_104_TrROS] | 0.722 ± 0.043
29 | SAGGSAGGSMPVLVSESPVGTLPDGTKVTRVTYRFPNGEILTETVVEPGPGPPTPENVALTLASAGGSAGGS [r12_775_JUSTAS] | 1.6 ± 0.29
30 | SELVEKAAEKGVKEIHIYLSEEQREAILKAADAGVKITIHLPEGATVEELKALPGIKVDKVEVFSPEELKSA [r9_671_TrROS_Hall] | 0.0735 ± 0.14
31 | SAGSMKIKIKAKVPPGPYRIRIMWQYPGGDFKPVEEETVDPGQEVKIPIEFPDGKPFDPDNIRVMIEPPSAG [r5_287_TrROS] | 2.08 ± 0.25
